Positions count from the first letter of the chain named.

This note sets out measurements from patent US20190367620A1 (Merck KGaA, published 2019).

Holding throughout (assay): SPR; free energy change relative to wild-type D2
In general terms: In SPR one partner is held on a chip, and binding of the other changes the refractive index at the surface.

The target of experiment [1] is T1, FGFR1 D2 point mutant S45A (human, UniProt P11362 22-254).
T1 chain: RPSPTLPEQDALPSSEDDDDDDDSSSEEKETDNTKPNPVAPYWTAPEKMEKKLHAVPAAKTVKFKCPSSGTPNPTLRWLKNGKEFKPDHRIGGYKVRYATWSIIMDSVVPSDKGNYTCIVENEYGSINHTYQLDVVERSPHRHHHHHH
As to the method: (§1) Binding affinities of anti-FGFR1 antibodies to FGFR1 were measured by Surface Plasmon Resonance (SPR) using a GE Healthcare BIAcore 4000 instrument as follows. Goat anti-human Fc antibody (Jackson ImmunoResearch Laboratories #109-005-098) was first immobilized on BIAcore carboxymethylated dextran CM5 chip using direct coupling to free amino groups following the procedure described by the manufacturer. Antibodies were then captured on the CM5 biosensor chip to achieve approximately 200 response units (RU). Binding measurements were performed using the running HBS-EP+ buffer. A 2-fold dilution series of His-tagged FGFR1 proteins were injected at a flow rate of 30 μl/min at 25° C. Association rates (kₒₙ, per mol/s) and dissociation rates (koff, per s) were calculated using a simple 1:1 Langmuir binding model (Biacore 4000 Evaluation Software). The equilibrium dissociation constant (KD, mol) was calculated as the ratio of koff/kₒₙ.
(§2) To obtain a finer, residue-level mapping of the epitope and to complement the HD exchange data, molecular modelling and manual inspection of the crystal structure of FGFR1 [(Beenken et al. 2012); PDB record 3OJV] was used to select solvent exposed residues within and around the epitope identified by HD exchange. The selected residues were mutated either to alanine (large to small) or to glycine if the selected residue was alanine. In total 35 point mutants were designed, expressed and purified in HEK cells, and tested for binding to mAb #A08 using surface plasmon resonance as described in Example 1.8. The affinity of the antibody for wild-type and each mutant was determined and used to calculate the contribution of each epitope residue to the binding energy.
(§3) Variant were compared to wild-type D2. The change in the Gibbs free energy of binding of mutant relative to the wild-type D2 construct (ΔΔGₘᵤₜ) was derived from the ratio of the wild-type and mutant KD.

In experiment [2] the target is T2, FGFR1 D2 point mutant E47A (human, UniProt P11362 22-254).
T2 chain: T1 chain with A45S, E47A
As to the method:
as §1, §2, §3

Experiment [3] concerns the target T3, FGFR1 D2 point mutant K48A (human, UniProt P11362 22-254).
T3 chain: T1 chain with A45S, K48A
As to the method: as §1, §2, §3

Experiment [4] deals with T4, FGFR1 D2 point mutant A55G (human, UniProt P11362 22-254).
T4 chain: T1 chain with A45S, A55G
As to the method: as §1, §2, §3

The target of experiment [5] is T5, FGFR1 D2 point mutant D88A (human, UniProt P11362 22-254).
T5 chain: T1 chain with A45S, D88A
As to the method:
as §1, §2, §3

Experiment [6] concerns the target T6, FGFR1 D2 point mutant H89A (human, UniProt P11362 22-254).
T6 chain: T1 chain with A45S, H89A
As to the method:
as §1, §2, §3

For experiment [7], the target named is T7, FGFR1 D2 point mutant I91A (human, UniProt P11362 22-254).
T7 chain: T1 chain with A45S, I91A
As to the method: as §1, §2, §3

Experiment [8] addresses T8, FGFR1 D2 point mutant Y94A (human, UniProt P11362 22-254).
T8 construct: Uncharacteristic melting curve
T8 chain: T1 chain with A45S, Y94A
As to the method:
as §1, §2, §3

Experiment [9] addresses T9, FGFR1 D2 point mutant V96A (human, UniProt P11362 22-254).
T9 chain: T1 chain with A45S, V96A
As to the method: as §1, §2, §3

Experiment [10] addresses T10, FGFR1 D2 point mutant T100A (human, UniProt P11362 22-254).
T10 chain: T1 chain with A45S, T100A
As to the method: as §1, §2, §3

B1: mAb #A08 (antibody, V domains shown)
VH: EVQLQESGPGLVKPSGTLSLTCAVSGGSISSNNWWSWVRQPPGKGLEWIGEIYHSGSTSYNPSLKSRVTISVDKSKNQFSLKLNSVTAADTAVYYCARGTDWFDPWGQGTLVTVSS
VL: QAVLTQPPSVSVAPGQTARITCGGNNIGSESVHWYQQKPGQAPVLVVYDDSDRPSGIPERFSGSNSGNTATLTISRVEAGDEADYYCQVWDSTSDHRVFGGGTKLTVL
notes: Only variable domains are tied to the name mAb #A08 (hit); also called #A08 hit; mAb #08
In the case of B1, the ΔΔGmut in [1] is 0.05 kcal/mol; in experiment [2], 0.17 kcal/mol; in experiment [3] it was -0.46 kcal/mol; in experiment [4], 0.07 kcal/mol; in experiment [5] it was -0.1 kcal/mol; in experiment [6] it was -0.02 kcal/mol. Further, the ΔΔGmut in experiment [7] was 0 kcal/mol; in experiment [8], 0.96 kcal/mol; in experiment [9] it was -0.02 kcal/mol; in experiment [10], 0.12 kcal/mol.
